Results from the supplement of paper PMC10598134.
± gives the standard deviation.

Experiment: collision cross section of modified peptide (TIMS, N2, iRT-aligned); higher = larger / more extended gas-phase ion
Procedure, shortened: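 On a timsTOF Pro/HT (dda-PASEF, nitrogen, ~2.4 mbar), synthetic peptide pools were analysed after a 120-min nanoflow C18 separation at 60 °C and identified in MaxQuant. Three reference ions served for 1/K0 calibration, with run-wise alignment to the median iRT peptide deviation. Collision cross section comes from the Mason-Schamp equation, using the most abundant feature per charge state averaged over 1–3 technical replicates.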

[1] = charge state: 3, modification: Trimethyl (K)
[2] = charge state: 2, modification: Propionyl
[3] = charge state: 2, modification: Phospho (Y)
[4] = charge state: 2, modification: Malonyl
[5] = charge state: 2, modification: Succinyl
[6] = charge state: 3, modification: Succinyl
[7] = charge state: 2, modification: hydroxyisobutyryl
[8] = charge state: 3, modification: hydroxyisobutyryl
[9] = charge state: 2, modification: HexNAc (ST)
[10] = charge state: 2, modification: Formyl
[11] = charge state: 2, modification: Methyl (K)
[12] = charge state: 3, modification: Methyl (K)
[13] = charge state: 2, modification: Glutarylation
[14] = charge state: 2, modification: Butyryl

With “SEASSEFAKK [_SEASSEFAK(Trimethyl (K))K_]” the collision cross section (charge state: 2, modification: Trimethyl (K)) was 361.14 ± 0.6 Å² and the collision cross section [1] was 431.4 ± 4.5 Å².

Sequence “VGTASVLQPVKK [_VGTASVLQPVK(Propionyl)K_]” has a collision cross section [2] of 382.42 ± 0.33 Å².

With “TFGKAAGPSLSHTSGGTQSK [_TFGK(Trimethyl (K))AAGPSLSHTSGGTQSK_]” the collision cross section [1] was 559.57 ± 0.94 Å².

“LSESHPDATEDLQR [_LS(HexNAc (ST))ESHPDATEDLQR_]” showed a collision cross section (charge state: 3, modification: HexNAc (ST)) of 486.6 ± 0.17 Å².

For AYILNLVK [_AY(Phospho (Y))ILNLVK_], the collision cross section [3] was 363.28 ± 0.69 Å².

For “VYIASSSGSTAIKK [_VYIASSSGSTAIK(Malonyl)K_]”, the collision cross section [4] was 409.24 ± 0.039 Å².

Work on SGFGKFER [_SGFGK(Succinyl)FER_] yielded a collision cross section [5] of 336.55 ± 1.3 Å².

“SKLLFSNTAAQK [_SK(Dimethyl (K))LLFSNTAAQK_]” showed a collision cross section (charge state: 2, modification: Dimethyl (K)) of 389.15 Å².

With “DYSAPVNFISAGLKK [_DYSAPVNFISAGLK(Succinyl)K_]” the collision cross section [5] was 438.82 ± 0.97 Å² and the collision cross section [6] was 533.85 ± 1.6 Å².

For DDSNLYINVK [_DDSNLY(Phospho (Y))INVK_], the collision cross section [3] was 368.08 ± 0.064 Å².

With “TGPPGSTGSRGPPGPPGR [_TGPPGSTGSRGPPGPP(Hydroxyproline)GR_]” the collision cross section (charge state: 3, modification: Hydroxyproline) was 472.54 ± 0.36 Å².

“TTGFYSGFSEVAEKR [_TTGFYSGFSEVAEK(hydroxyisobutyryl)R_]” gave a collision cross section [7] of 444.06 ± 0.8 Å² and a collision cross section [8] of 515.51 ± 0.49 Å².

With “ASTPGAAAQIQEVK [_AS(HexNAc (ST))TPGAAAQIQEVK_]” the collision cross section [9] was 409.94 ± 0.76 Å².

SPDEAYAIAKK [_SPDEAYAIAK(Succinyl)K_] showed a collision cross section [5] of 374.28 ± 0.24 Å² and a collision cross section [6] of 452.6 ± 2.6 Å².

Sequence “TTGFYSGFSEVAEKR [_TTGFYSGFSEVAEK(Formyl)R_]” has a collision cross section [10] of 430.24 ± 0.79 Å².

For “DHLSDKESK [_DHLSDK(hydroxyisobutyryl)ESK_]”, the collision cross section [7] was 357.61 ± 1.9 Å² and the collision cross section [8] was 415.53 ± 4.4 Å².

“ITESVAETAQTIKK [_ITESVAETAQTIK(Methyl (K))K_]” showed a collision cross section [11] of 444.7 ± 2.5 Å² and a collision cross section [12] of 507.98 ± 2.8 Å².

Work on “VDIDAPDVSIEGPDAKLK [_VDIDAPDVSIEGPDAK(Gluratylation)LK_]” yielded a collision cross section [13] of 469.43 ± 1.5 Å².

Sequence “PASGAGAGAGAGKR [_PASGAGAGAGAGK(Malonyl)R_]” has a collision cross section [4] of 352.42 ± 0.026 Å².

With TPNLYIYSKK [_TPNLYIYSK(Butyryl)K_] the collision cross section [14] was 388.09 ± 0.85 Å² and the collision cross section (charge state: 3, modification: Butyryl) was 439.93 Å².

TSAYGPPTR [_TSAY(Nitro (Y))GPPTR_] showed a collision cross section (charge state: 2, modification: Nitro (Y)) of 326.25 ± 1.1 Å².

In the case of GEVQVSDKER [_GEVQVSDK(Butyryl)ER_], the collision cross section [14] is reported as 363.29 ± 0.49 Å².

Sequence “YSRGAGLGFSTAPNK [_YSR(Citrullination (R))GAGLGFSTAPNK_]” has a collision cross section (charge state: 2, modification: Citrullination (R)) of 397.83 ± 0.22 Å².

Sequence “GFALVGVGSEASSKK [_GFALVGVGSEASSK(Biotin)K_]” has a collision cross section (charge state: 2, modification: Biotin) of 423.88 ± 1.4 Å² and a collision cross section (charge state: 3, modification: Biotin) of 494.71 ± 0.97 Å².

For SPDEAYAIAKK [_SPDEAYAIAK(Methyl (K))K_], the collision cross section [11] was 372.23 ± 0.47 Å² and the collision cross section [12] was 436.75 ± 4.3 Å².

Sequence “VLPSITTEILK [_VLPS(HexNAc (ST))ITTEILK_]” has a collision cross section [9] of 396.57 Å².

Work on ASDTSSETVFGKR [_ASDTSSETVFGK(Formyl)R_] yielded a collision cross section [10] of 390.61 ± 0.41 Å².

With “SGGGYGGDRGGGYGGDR [_SGGGYGGDR(Methyl (R))GGGYGGDR_]” the collision cross section (charge state: 3, modification: Methyl (R)) was 461.83 ± 3 Å².

In the case of “LAPEYEAAATR [_LAPEY(Phospho (Y))EAAATR_]”, the collision cross section [3] is reported as 374.2 ± 0.063 Å².

With “ASAISIKLGSSK [_ASAISIK(hydroxyisobutyryl)LGSSK_]” the collision cross section [7] was 374.73 ± 0.8 Å².

Sequence “KYEEIDNAPEER [_K(Propionyl)YEEIDNAPEER_]” has a collision cross section [2] of 411.41 ± 0.64 Å² and a collision cross section (charge state: 3, modification: Propionyl) of 491.8 Å².

In the case of “DDSFLGKLGGTLAR [_DDSFLGK(Malonyl)LGGTLAR_]”, the collision cross section [4] is reported as 411.31 ± 1 Å² and the collision cross section (charge state: 3, modification: Malonyl) is reported as 489.57 ± 2.2 Å².

“GGPGSTLSFVGKR [_GGPGSTLSFVGK(hydroxyisobutyryl)R_]” gave a collision cross section [7] of 388.57 ± 0.81 Å².

With “LFVGGIKEDTEEHHLR [_LFVGGIK(Succinyl)EDTEEHHLR_]” the collision cross section [5] was 497.55 Å² and the collision cross section [6] was 541.97 ± 1.1 Å².

For ISALQGKLSK [_ISALQGK(Succinyl)LSK_], the collision cross section [5] was 354.02 ± 1.3 Å².

Work on “LLEEEDSKLK [_LLEEEDSK(Gluratylation)LK_]” yielded a collision cross section [13] of 387.79 ± 0.61 Å².

RGGFAVQAK [_R(Methyl (R))GGFAVQAK_] showed a collision cross section (charge state: 2, modification: Methyl (R)) of 338.01 ± 1.4 Å².
